Test results taken from publication PMC10570127 (The Journal of Biological Chemistry, 2023).

How the values were obtained:
[1] = tested on: CC(=O)N[C@H]1[C@H](Oc2ccc([N+](=O)[O-])cc2)O[C@H](COS(=O)(=O)O)[C@@H](O)[C@@H]1O; assay: Michaelis-Menten kinetics of hydrolysis by purified mutant; format: biochemical, Streptococcus pneumoniae; details: active site; pH 7.0
[2] = tested on: CC(=O)N[C@H]1[C@H](Oc2ccc3c(C)cc(=O)oc3c2)O[C@H](COS(=O)(=O)O)[C@@H](O)[C@@H]1O; assay: as above; format: biochemical, Streptococcus pneumoniae; details: active site; pH 7.0
Sp_0475 = target: T1, Sp_0475 (Streptococcus pneumoniae, UniProt A0A0H2UNN2); format: biochemical
T1 sequence (A0A0H2UNN2 1-646): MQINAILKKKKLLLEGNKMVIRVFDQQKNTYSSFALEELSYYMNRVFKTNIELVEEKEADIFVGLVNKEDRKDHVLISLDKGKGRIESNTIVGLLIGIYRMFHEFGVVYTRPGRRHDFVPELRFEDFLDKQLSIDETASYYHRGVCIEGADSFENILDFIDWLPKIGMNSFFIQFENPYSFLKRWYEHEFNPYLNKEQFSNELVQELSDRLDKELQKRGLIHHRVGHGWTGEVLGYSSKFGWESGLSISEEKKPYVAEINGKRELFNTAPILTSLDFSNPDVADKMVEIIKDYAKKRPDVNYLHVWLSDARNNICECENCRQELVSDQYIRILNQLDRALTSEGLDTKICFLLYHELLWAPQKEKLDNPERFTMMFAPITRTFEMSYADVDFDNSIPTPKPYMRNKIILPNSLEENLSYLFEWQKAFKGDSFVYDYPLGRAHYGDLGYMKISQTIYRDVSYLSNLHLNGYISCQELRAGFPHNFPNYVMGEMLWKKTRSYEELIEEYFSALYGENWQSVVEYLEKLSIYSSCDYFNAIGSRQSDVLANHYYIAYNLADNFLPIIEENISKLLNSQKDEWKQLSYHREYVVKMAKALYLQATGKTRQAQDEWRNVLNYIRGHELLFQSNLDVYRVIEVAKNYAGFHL

purified protein [3] = substrate: CC(=O)N[C@H]1[C@H](Oc2ccc3c(C)cc(=O)oc3c2)O[C@H](COS(=O)(=O)O)[C@@H](O)[C@@H]1O; assay: purified protein; details: active site; pH 7.0
purified protein [4] = substrate: CC(=O)N[C@H]1[C@H](Oc2ccc([N+](=O)[O-])cc2)O[C@H](COS(=O)(=O)O)[C@@H](O)[C@@H]1O; assay: purified protein; details: active site; R633 interacts with the sulfate; pH 7.0

“Sp_0475 (Streptococcus pneumoniae TIGR4; Y436F)” showed a Km [1] of 57 ± 4 µM, a kcat [1] of 0.15 ± 0.002 s⁻¹ and a kcat/Km [1] of 3000 ± 500 M⁻¹ s⁻¹.

In the case of “Sp_0475 (Streptococcus pneumoniae TIGR4; D309A)”, the Km [2] is reported as 1.5 ± 0.1 µM, the kcat [2] is reported as 0.007 ± 0.0001 s⁻¹ and the kcat/Km [2] is reported as 4000 ± 1000 M⁻¹ s⁻¹. It also gave a Km [1] of 4.0 ± 0.1 µM.

`CC1=N[C@@H]2[C@@H](O)[C@H](O)[C@@H](CO)O[C@@H]2S1` [GlcNAc-thiazoline] was tested, and the Ki (Sp_0475) was 6.6 ± 0.2 mM.

B1: Sp_0475 (Streptococcus pneumoniae TIGR4) (protein)
chain: T1 sequence (A0A0H2UNN2 1-646)
B1 showed a Km (purified protein [3]) of 264 ± 7 µM, a kcat (purified protein [3]) of 55 ± 0.4 s⁻¹ and a kcat/Km (purified protein [3]) of 210000 ± 60000 M⁻¹ s⁻¹. It also gave a Km (purified protein [4]) of 250 ± 4 µM, a kcat (purified protein [4]) of 65 ± 0.3 s⁻¹ and a kcat/Km (purified protein [4]) of 260000 ± 80000 M⁻¹ s⁻¹.
